The target in one assay is HLA-A*30:02. The experiment in a line: IEDB peptide-MHC binding, purified MHC/competitive/radioactivity; filed as Kd, often an IC50 or EC50 that approximates it; ≥ and ≤ were set here for values at or beyond the usual limits of such assays.
For assay [1], the target named is HLA-A*02:01. Kind of assay: IEDB peptide-MHC binding, purified MHC/competitive/fluorescence; filed as Kd, often an IC50 or EC50 that approximates it; ≥ and ≤ were set here for values at or beyond the usual limits of such assays.
The target of the next assay is HLA-A*24:02. Kind of assay: IEDB peptide-MHC binding, purified MHC/competitive/radioactivity; filed as Kd, often an IC50 or EC50 that approximates it; ≥ and ≤ were set here for values at or beyond the usual limits of such assays.
The target of another assay is HLA-A*23:01. Described as above.
Assay [2] has as its target HLA-A*02:01. The experiment in a line: IEDB peptide-MHC binding, purified MHC/competitive/fluorescence; ≥ and ≤ were set here for values at or beyond the usual limits of such assays.
A further assay deals with HLA-B*07:02. Kind of assay: IEDB peptide-MHC binding, purified MHC/direct/fluorescence; filed as Kd, often an IC50 or EC50 that approximates it; ≥ and ≤ were set here for values at or beyond the usual limits of such assays.
The next assay has as its target HLA-A*69:01. The assay is described as above.
The target in assay [3] is HLA-A*02:01. The description is as above.
Another assay deals with HLA-A*01:01. Described as above.
The target in a further assay is HLA-A*02:02. Kind of assay: IEDB peptide-MHC binding, purified MHC/competitive/radioactivity; filed as Kd, often an IC50 or EC50 that approximates it; ≥ and ≤ were set here for values at or beyond the usual limits of such assays. The conditions noted are these: source organism: Vaccinia virus WR.
In a further assay the target is HLA-A*30:01. The description is as above.
For another assay, the target named is HLA-A*02:03. The description is as above. To be noted: source organism: Vaccinia virus WR.
In the next assay the target is HLA-A*02:06. The assay is described as above.
The next assay deals with HLA-B*27:05. The experiment in a line: IEDB peptide-MHC binding, purified MHC/direct/fluorescence; filed as Kd, often an IC50 or EC50 that approximates it; ≥ and ≤ were set here for values at or beyond the usual limits of such assays. To be noted: source organism: Mammarenavirus juninense.
Another assay deals with HLA-A*31:01. Kind of assay: IEDB peptide-MHC binding, purified MHC/competitive/radioactivity; filed as Kd, often an IC50 or EC50 that approximates it; ≥ and ≤ were set here for values at or beyond the usual limits of such assays. To be noted: source organism: Vaccinia virus WR.
Assay [4] concerns the target HLA-A*11:01. The assay is described as above. To be noted: source organism: Vaccinia virus WR.
Assay [5] deals with HLA-A*03:01. The description is as above.
The next assay has as its target HLA-A*33:01. The description is as above. The conditions noted are these: source organism: Vaccinia virus WR.
For another assay, the target named is HLA-A*68:01. The assay is described as above. The conditions noted are these: source organism: Vaccinia virus WR.
The next assay concerns the target HLA-B*40:01. Kind of assay: IEDB peptide-MHC binding, purified MHC/direct/fluorescence; filed as Kd, often an IC50 or EC50 that approximates it; ≥ and ≤ were set here for values at or beyond the usual limits of such assays.
In a further assay the target is HLA-B*15:01. The description is as above.
Assay [6] addresses HLA-A*11:01. The description is as above. To be noted: source organism: SARS-CoV1.
Assay [7] deals with HLA-A*03:01. The description is as above. The conditions noted are these: source organism: SARS-CoV1.
The mark [8] stands for this setting: source organism: Dengue virus 2 Jamaica/1409/1983.
[9] abbreviates: source organism: Vaccinia virus WR.
The mark [10] stands for this setting: source organism: Vaccinia virus Copenhagen.
[11] abbreviates: source organism: Dengue virus 1 Singapore/S275/1990.
Setting [12] is: source organism: Orthohantavirus hantanense.
Where [13] appears, read: source organism: Entamoeba histolytica HM-1:IMSS.
[14] abbreviates: source organism: Dengue virus 4 Philippines/H241/1956.
The mark [15] stands for this setting: source organism: Dengue virus 1 Brazil/97-11/1997.
Where [16] appears, read: source organism: Encephalitozoon cuniculi.

By Kd is commonly meant the free concentration of one partner at which half of the binding sites on the other are occupied at equilibrium, for simple one-to-one binding. Consider LHQVFGAIY, for which, in the assay with HLA-A*30:02 (setting [8]), the Kd was found to be 42.7 nM.

In the assay with HLA-A*02:01 [1] (setting [9]), LLPDSDVFV showed a Kd of 1.1 nM.

In the assay with HLA-A*02:01 [1] (setting [10]), LNIMNKLNI yielded an equilibrium dissociation constant (Kd) of 406 nM.

In the case of LWATLLSLTF, the dissociation constant (Kd) with HLA-A*24:02 (setting [11]) stood at 193 nM; with HLA-A*23:01 (setting [11]) it was 25.3 nM.

Take MMPIKSIVTL: in the assay with HLA-A*02:01 [1] (source organism: Variola virus), the dissociation constant Kd worked out at 5.1 nM.

What is called IC50 is the concentration at which inhibition is half-maximal. High values mean weaker potency in that assay, low ones greater potency in that assay. As to NAAGIAWIP, the IC50 with HLA-A*02:01 [2] (source organism: Sudan ebolavirus) is 64500 nM.

As to NAHEGQLVI, the Kd with HLA-B*07:02 (setting [12]) is at least 25300 nM; with HLA-A*69:01 (setting [12]), 3400 nM.

For the sequence NVGRILGYV, the Kd with HLA-A*69:01 (setting [13]) was determined as 3.7 nM; with HLA-A*02:01 [3] (setting [13]), 146 nM.

Take NVMAADPPK: the dissociation constant Kd with HLA-A*01:01 (source organism: Yersinia pestis) was at least 20000 nM.

NWASVKKDLI: the dissociation constant Kd with HLA-A*23:01 (source organism: Dengue virus 3 Martinique/1243/1999) came out at 287 nM.

Turning to QMDGAILVV, the Kd in the assay with HLA-A*69:01 (source organism: Brucella abortus 2308) came to 3440 nM.

For the sequence RALKAYFTA, the dissociation constant Kd in the assay with HLA-A*02:02 was found to be 2350 nM; in the assay with HLA-A*30:01 (setting [9]), 66.1 nM; in the assay with HLA-A*02:03, 204 nM; with HLA-A*02:06 (setting [9]) it was 13.7 nM.

For RFLEFEALGF, the Kd with HLA-A*23:01 (setting [14]) is 1.44 nM.

RMPEAAPPV registered an equilibrium dissociation constant (Kd) with HLA-A*02:01 [1] (source organism: Tupaia belangeri) of 0.5 nM.

Sequence RRDLKLVDV gave a Kd with HLA-B*27:05 of at least 20000 nM.

As to RTKLMSNIK, the Kd with HLA-A*31:01 was 4.49 nM; with HLA-A*11:01 [4] it was 29.4 nM; in the assay with HLA-A*30:01 (setting [9]), 0.38 nM; in the assay with HLA-A*03:01 [5] (setting [9]), 23.6 nM; in the assay with HLA-A*33:01, at least 56800 nM; in the assay with HLA-A*68:01 it was 778 nM.

In the assay with HLA-A*01:01 (source organism: Mycobacterium tuberculosis), RTRPRWIPA gave a Kd of at least 20000 nM.

Take RWFVERNMVT: the Kd with HLA-A*24:02 (setting [8]) was found to be 855 nM.

The sequence SEILPFTVL registered an equilibrium dissociation constant (Kd) with HLA-B*40:01 (source organism: Mycobacterium tuberculosis variant bovis) of 14.7 nM.

In turn, SLYNLVKSSV displayed a Kd in the assay with HLA-A*02:01 [1] (source organism: Variola virus) of 3.2 nM.

In the case of SQDTTIPDV, the half-inhibitory concentration (IC50) with HLA-A*02:01 [2] (source organism: Zaire ebolavirus) amounted to 5340 nM.

Take SQKTTWLPV: the equilibrium dissociation constant (Kd) in the assay with HLA-A*30:01 (setting [15]) worked out at 15.1 nM; with HLA-A*02:06 (setting [15]), 175 nM.

Consider SWKLEKASF, for which, in the assay with HLA-A*24:02 (source organism: Dengue virus 3 Singapore/8120/1995), the Kd came out at 153 nM.

In turn, TLLMNELGV gave a dissociation constant (Kd) in the assay with HLA-A*02:01 [1] (source organism: Influenza A virus (A/nt/60/1968(H3N2))) of 0.7 nM.

Regarding TLNASQYAN, the IC50 in the assay with HLA-A*02:01 [2] (setting [10]) is at least 143000 nM.

TQFESLKIY displayed a Kd with HLA-B*15:01 (source organism: Influenza A virus (A/Chicken/Nanchang/2-220/2001(H3N6))) of 211 nM.

Take TTRHRKPTY: the Kd was 1180 nM with HLA-A*30:01 (setting [14]) and 658 nM with HLA-A*30:02 (setting [14]).

As for TWAFCEVLTL, the Kd with HLA-A*24:02 (setting [14]) turned out to be 2230 nM; with HLA-A*23:01 (setting [14]), 237 nM.

Turning to VMRSRWSRK, the equilibrium dissociation constant (Kd) with HLA-A*30:01 (setting [15]) came to 10.8 nM; with HLA-A*03:01 [5] (setting [15]) it was 4.86 nM.

On to VQTVRTQVY, for which the equilibrium dissociation constant (Kd) with HLA-B*07:02 (source organism: SARS-CoV1) was 16700 nM; with HLA-B*40:01 (source organism: SARS-CoV1), at least 168000 nM; with HLA-B*15:01 (source organism: SARS-CoV1), 144 nM; with HLA-A*11:01 [6], at least 44700 nM; with HLA-A*01:01 (source organism: SARS-CoV1), at least 24700 nM; with HLA-A*03:01 [7] it was 6620 nM.

In the case of WHLGKLEMDF, the equilibrium dissociation constant (Kd) in the assay with HLA-A*23:01 (setting [8]) was 1880 nM.

YLWFKRHVY: the Kd worked out at 3240 nM with HLA-A*69:01 (setting [16]) and 4010 nM in the assay with HLA-A*02:01 [3] (setting [16]).

With YWVSCGTGNI, the Kd with HLA-A*23:01 (setting [15]) turned out to be 165 nM.

For the sequence YYMATLKNV, the Kd with HLA-A*24:02 (setting [14]) amounted to 74.2 nM; with HLA-A*23:01 (setting [14]) it was 319 nM.

(Values after the Immune Epitope Database (IEDB).)
